The values that follow come from article doi:10.1101/2025.10.01.679806 (bioRxiv, 2025).

This series concerns the molecule itself. The series is described as follows: methyl-TROSY NMR.

B1: Bpa 45-153 (domain or fragment)
chain: AKVMRIGTMIKQLLEEVRAAPLDEASRNRLRDIHATSIRELEDGLAPELREELDRLTLPFNEDAVPSDAELRIAQAQLVGWLEGLFHGIQTALFAQQMAARAQLQQMRQ
The stoichiometry N is a count of units in the complex or per binding partner. Take B1: the “stoichiometry N” value came to 4.
